From patent US12698507B2, “Methods and compositions for conferring and/or enhancing herbicide tolerance using protoporphyrinogen IX oxidase of various cyanobacteria or variant thereof” (FarmHannong Co., Ltd., priority 2019, dated 2026)

Tested on: PPO-deficient BT3 E. coli (ΔPPO)
Test: PPO-inhibiting herbicide tolerance test of PPO variants in E. coli (growth on herbicide-containing LB agar)
Assay type: cell-based
Settings: CyPPO19 variants in BT3 (ΔPPO) E. coli; LB agar with 0 to 2,000 μM herbicide, 37° C., dark, 16-20 hours
How it was run: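 PPO-deficient BT3 E. coli expressing each variant from pET303 were diluted to OD600=0.5, then 10-fold serially, and spotted on LB-ampicillin agar with 0 to 2,000 μM herbicide. After 16-20 h at 37° C. in the dark, growth relative to wild type was scored from '−' (equivalent) to '+' per 10-fold resistance, max '+++++'.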

B1: CyPPO19 R89A + V165C + L327T + F360V: variant of CyPPO19 PPO protein (SEQ ID NO: 1) (protein)
chain: MSEVDVAIVGGGLSGLSLAWRLQQSAPQYSVVLLEASDRLGGNITTQTAEGFVWELGPNSFAPTPALLQLIAEVGLQSELIRGDRHLPAYIYWRGQLYPLQPTRPLALATSNLLSPWGKVRAALGALGFVPPYLGSGDESVNSFFRRHLGQEVAERLVAPFVSGCYAGDPQQLSAAAAFRRIAQLEKLGGGLIAGALHLRRQQAPKPKPPTSVQMRPGELGSFKEGLAALPRAIAQQLKAPIHLQTPVQEITPDPKGGYLLRSGEQTWRARSVVLATPAYQTAELVAPFQPAIARVLATIPYPTVACVVLAYPAGLGRSVRPGFGVTIPRSQGIRTLGTIWSSCLFPQRTPAGWQVFTSVIGGATDPDLASLSEEAIVQQVQQDLNRLLDLPAAKARLLGMKVWRRAIPQYMVGYPEQWQQVTHALSQTPGLFLCSNYAEGVALGDRVEHGNRTAAAVAAYLSGGQP
modifications: Synthetic_PPO of Thermosynechococcus elongatus PKUAC-SCTE542 (comprising GenBank No. CP032152.1)
tolerance level relative to wild type, Carfentrazone: + (‘+’ per each 10-fold resistance)
tolerance level relative to wild type, Flumioxazin: ++++ (‘+’ per each 10-fold resistance)
tolerance level relative to wild type, Fomesafen: + (‘+’ per each 10-fold resistance)
tolerance level relative to wild type, Oxyfluorfen: + (‘+’ per each 10-fold resistance)
tolerance level relative to wild type, Saflufenacil: +++ (‘+’ per each 10-fold resistance)
tolerance level relative to wild type, Sulfentrazone: ++ (‘+’ per each 10-fold resistance)
tolerance level relative to wild type, Tiafenacil: +++ (‘+’ per each 10-fold resistance)

B2: CyPPO19 V165S + F360V: variant of CyPPO19 PPO protein (SEQ ID NO: 1) (protein)
chain: MSEVDVAIVGGGLSGLSLAWRLQQSAPQYSVVLLEASDRLGGNITTQTAEGFVWELGPNSFAPTPALLQLIAEVGLQSELIRGDRHLPRYIYWRGQLYPLQPTRPLALATSNLLSPWGKVRAALGALGFVPPYLGSGDESVNSFFRRHLGQEVAERLVAPFVSGSYAGDPQQLSAAAAFRRIAQLEKLGGGLIAGALHLRRQQAPKPKPPTSVQMRPGELGSFKEGLAALPRAIAQQLKAPIHLQTPVQEITPDPKGGYLLRSGEQTWRARSVVLATPAYQTAELVAPFQPAIARVLATIPYPTVACVVLAYPAGLGRSVRPGFGVLIPRSQGIRTLGTIWSSCLFPQRTPAGWQVFTSVIGGATDPDLASLSEEAIVQQVQQDLNRLLDLPAAKARLLGMKVWRRAIPQYMVGYPEQWQQVTHALSQTPGLFLCSNYAEGVALGDRVEHGNRTAAAVAAYLSGGQP
modifications: Synthetic_PPO of Thermosynechococcus elongatus PKUAC-SCTE542 (comprising GenBank No. CP032152.1)
tolerance level relative to wild type, Carfentrazone: + (‘+’ per each 10-fold resistance)
tolerance level relative to wild type, Flumioxazin: ++++ (‘+’ per each 10-fold resistance)
tolerance level relative to wild type, Fomesafen: + (‘+’ per each 10-fold resistance)
tolerance level relative to wild type, Oxyfluorfen: ++ (‘+’ per each 10-fold resistance)
tolerance level relative to wild type, Saflufenacil: ++++ (‘+’ per each 10-fold resistance)
tolerance level relative to wild type, Sulfentrazone: ++++ (‘+’ per each 10-fold resistance)
tolerance level relative to wild type, Tiafenacil: ++++ (‘+’ per each 10-fold resistance)

B3: CyPPO19 R89A + A167L + V305L + F360T: variant of CyPPO19 PPO protein (SEQ ID NO: 1) (protein)
chain: MSEVDVAIVGGGLSGLSLAWRLQQSAPQYSVVLLEASDRLGGNITTQTAEGFVWELGPNSFAPTPALLQLIAEVGLQSELIRGDRHLPAYIYWRGQLYPLQPTRPLALATSNLLSPWGKVRAALGALGFVPPYLGSGDESVNSFFRRHLGQEVAERLVAPFVSGVYLGDPQQLSAAAAFRRIAQLEKLGGGLIAGALHLRRQQAPKPKPPTSVQMRPGELGSFKEGLAALPRAIAQQLKAPIHLQTPVQEITPDPKGGYLLRSGEQTWRARSVVLATPAYQTAELVAPFQPAIARVLATIPYPTLACVVLAYPAGLGRSVRPGFGVLIPRSQGIRTLGTIWSSCLFPQRTPAGWQVFTSTIGGATDPDLASLSEEAIVQQVQQDLNRLLDLPAAKARLLGMKVWRRAIPQYMVGYPEQWQQVTHALSQTPGLFLCSNYAEGVALGDRVEHGNRTAAAVAAYLSGGQP
modifications: Synthetic_PPO of Thermosynechococcus elongatus PKUAC-SCTE542 (comprising GenBank No. CP032152.1)
tolerance level relative to wild type, Carfentrazone: + (‘+’ per each 10-fold resistance)
tolerance level relative to wild type, Flumioxazin: ++ (‘+’ per each 10-fold resistance)
tolerance level relative to wild type, Fomesafen: ++ (‘+’ per each 10-fold resistance)
tolerance level relative to wild type, Oxyfluorfen: ++ (‘+’ per each 10-fold resistance)
tolerance level relative to wild type, Saflufenacil: +++ (‘+’ per each 10-fold resistance)
tolerance level relative to wild type, Sulfentrazone: ++ (‘+’ per each 10-fold resistance)
tolerance level relative to wild type, Tiafenacil: +++ (‘+’ per each 10-fold resistance)

B4: CyPPO19 R89A + A167C + I408R + F360M: variant of CyPPO19 PPO protein (SEQ ID NO: 1) (protein)
chain: MSEVDVAIVGGGLSGLSLAWRLQQSAPQYSVVLLEASDRLGGNITTQTAEGFVWELGPNSFAPTPALLQLIAEVGLQSELIRGDRHLPAYIYWRGQLYPLQPTRPLALATSNLLSPWGKVRAALGALGFVPPYLGSGDESVNSFFRRHLGQEVAERLVAPFVSGVYCGDPQQLSAAAAFRRIAQLEKLGGGLIAGALHLRRQQAPKPKPPTSVQMRPGELGSFKEGLAALPRAIAQQLKAPIHLQTPVQEITPDPKGGYLLRSGEQTWRARSVVLATPAYQTAELVAPFQPAIARVLATIPYPTVACVVLAYPAGLGRSVRPGFGVLIPRSQGIRTLGTIWSSCLFPQRTPAGWQVFTSMIGGATDPDLASLSEEAIVQQVQQDLNRLLDLPAAKARLLGMKVWRRARPQYMVGYPEQWQQVTHALSQTPGLFLCSNYAEGVALGDRVEHGNRTAAAVAAYLSGGQP
modifications: Synthetic_PPO of Thermosynechococcus elongatus PKUAC-SCTE542 (comprising GenBank No. CP032152.1)
tolerance level relative to wild type, Carfentrazone: + (‘+’ per each 10-fold resistance)
tolerance level relative to wild type, Flumioxazin: ++++ (‘+’ per each 10-fold resistance)
tolerance level relative to wild type, Fomesafen: ++ (‘+’ per each 10-fold resistance)
tolerance level relative to wild type, Oxyfluorfen: ++ (‘+’ per each 10-fold resistance)
tolerance level relative to wild type, Saflufenacil: +++ (‘+’ per each 10-fold resistance)
tolerance level relative to wild type, Sulfentrazone: ++ (‘+’ per each 10-fold resistance)
tolerance level relative to wild type, Tiafenacil: +++ (‘+’ per each 10-fold resistance)

B5: CyPPO19 R89A + A167L + L327T + F360I: variant of CyPPO19 PPO protein (SEQ ID NO: 1) (protein)
chain: MSEVDVAIVGGGLSGLSLAWRLQQSAPQYSVVLLEASDRLGGNITTQTAEGFVWELGPNSFAPTPALLQLIAEVGLQSELIRGDRHLPAYIYWRGQLYPLQPTRPLALATSNLLSPWGKVRAALGALGFVPPYLGSGDESVNSFFRRHLGQEVAERLVAPFVSGVYLGDPQQLSAAAAFRRIAQLEKLGGGLIAGALHLRRQQAPKPKPPTSVQMRPGELGSFKEGLAALPRAIAQQLKAPIHLQTPVQEITPDPKGGYLLRSGEQTWRARSVVLATPAYQTAELVAPFQPAIARVLATIPYPTVACVVLAYPAGLGRSVRPGFGVTIPRSQGIRTLGTIWSSCLFPQRTPAGWQVFTSIIGGATDPDLASLSEEAIVQQVQQDLNRLLDLPAAKARLLGMKVWRRAIPQYMVGYPEQWQQVTHALSQTPGLFLCSNYAEGVALGDRVEHGNRTAAAVAAYLSGGQP
modifications: Synthetic_PPO of Thermosynechococcus elongatus PKUAC-SCTE542 (comprising GenBank No. CP032152.1)
tolerance level relative to wild type, Carfentrazone: ++ (‘+’ per each 10-fold resistance)
tolerance level relative to wild type, Flumioxazin: ++++ (‘+’ per each 10-fold resistance)
tolerance level relative to wild type, Fomesafen: +++ (‘+’ per each 10-fold resistance)
tolerance level relative to wild type, Oxyfluorfen: +++++ (until ‘+++++’ as maximal resistance)
tolerance level relative to wild type, Saflufenacil: ++++ (‘+’ per each 10-fold resistance)
tolerance level relative to wild type, Sulfentrazone: ++++ (‘+’ per each 10-fold resistance)
tolerance level relative to wild type, Tiafenacil: ++++ (‘+’ per each 10-fold resistance)

B6: CyPPO19 R89A + V165S + I408R + F360L: variant of CyPPO19 PPO protein (SEQ ID NO: 1) (protein)
chain: MSEVDVAIVGGGLSGLSLAWRLQQSAPQYSVVLLEASDRLGGNITTQTAEGFVWELGPNSFAPTPALLQLIAEVGLQSELIRGDRHLPAYIYWRGQLYPLQPTRPLALATSNLLSPWGKVRAALGALGFVPPYLGSGDESVNSFFRRHLGQEVAERLVAPFVSGSYAGDPQQLSAAAAFRRIAQLEKLGGGLIAGALHLRRQQAPKPKPPTSVQMRPGELGSFKEGLAALPRAIAQQLKAPIHLQTPVQEITPDPKGGYLLRSGEQTWRARSVVLATPAYQTAELVAPFQPAIARVLATIPYPTVACVVLAYPAGLGRSVRPGFGVLIPRSQGIRTLGTIWSSCLFPQRTPAGWQVFTSLIGGATDPDLASLSEEAIVQQVQQDLNRLLDLPAAKARLLGMKVWRRARPQYMVGYPEQWQQVTHALSQTPGLFLCSNYAEGVALGDRVEHGNRTAAAVAAYLSGGQP
modifications: Synthetic_PPO of Thermosynechococcus elongatus PKUAC-SCTE542 (comprising GenBank No. CP032152.1)
tolerance level relative to wild type, Carfentrazone: + (‘+’ per each 10-fold resistance)
tolerance level relative to wild type, Flumioxazin: ++++ (‘+’ per each 10-fold resistance)
tolerance level relative to wild type, Fomesafen: ++ (‘+’ per each 10-fold resistance)
tolerance level relative to wild type, Oxyfluorfen: ++ (‘+’ per each 10-fold resistance)
tolerance level relative to wild type, Saflufenacil: ++++ (‘+’ per each 10-fold resistance)
tolerance level relative to wild type, Sulfentrazone: +++ (‘+’ per each 10-fold resistance)
tolerance level relative to wild type, Tiafenacil: ++++ (‘+’ per each 10-fold resistance)
